These results are taken from patent publication US20110118447A1.

The target of test [1] is binding partner (antigen) of ING-1, not given. Briefly: Biacore; internal control identical to original. (In general: In SPR one partner is held on a chip, and binding of the other changes the refractive index at the surface.)
Test [2] concerns the target binding partner (antigen) of ING-1. Briefly: Biacore, internal control.
For test [3], the target named is binding partner of C5A (XPA23). Briefly: Biacore (K-off), clones identical to parent C5A (XPA23).
Test [4] has as its target binding partner of C5A (XPA23). Briefly: Biacore; internal control, L96 L is identical to the original C5A (XPA23).
For test [5], the target named is binding partner of C5A (XPA23). Briefly: Biacore, mutant vs original C5A (XPA23).

Positions count from the first letter of the chain named. Names may count otherwise.

“ING-1 antibody variable domain (original, unmodified)” registered a fold difference in affinity vs original in test [1] of 1.38 fold. As to “ING-1 (original, unmodified variable domain) (antibody)”, the fold difference in affinity vs original in test [2] was found to be 1.38 fold.

B1: C5A (XPA23) (antibody, V domains shown)
VH: EVQLLESGGGLVQPGGSLRLSCAASGFTFSKYFMFWVRQAPGKGLEWVSVISPSGGMTRYADSVKGRFTISRDNSKNTLYLQMNSLRAEDTAVYYCARVGYGGNSDYWGQGTLVTVSS
VL: DIQMTQSPSSVSASVGDRLTIICRASQDINRWLAWYQQTPGNAPKLLIHSATSLQSGVPSRFSGSGSGTDFTLTINSLQPEDFATYYCQQADSFPLTFGGGTKVEIK
For the molecule B1, the mean fold affinity of internal controls vs original in test [3] worked out at 1.03 fold. Besides, the fold difference in affinity in comparison to original in test [4] was 1.16 fold.

B2: C5A (XPA23) light chain variable region P95A (antibody, V domains shown)
VH: B1 VH
VL: B1 VL with P95A
For B2, the fold difference in affinity in comparison to original in test [5] amounted to 3.83 fold.

B3: C5A (XPA23) light chain variable region F94V (antibody, V domains shown)
VH: B1 VH
VL: B1 VL with F94V
On to B3, for which the fold difference in affinity in comparison to original in test [5] amounted to 0.2 fold.

B4: C5A (XPA23) light chain variable region L96A (antibody, V domains shown)
VH: B1 VH
VL: B1 VL with L96A
B4: the fold difference in affinity in comparison to original in test [5] was determined as 0.26 fold.

B5: C5A (XPA23) light chain variable region L96T (antibody, V domains shown)
VH: B1 VH
VL: B1 VL with L96T
As to B5, the fold difference in affinity in comparison to original in test [5] amounted to 0.06 fold.

B6: C5A (XPA23) light chain variable region L96I (antibody, V domains shown)
VH: B1 VH
VL: B1 VL with L96I
Turning to B6, the fold difference in affinity in comparison to original in test [5] came out at 0.67 fold.

B7: C5A (XPA23) light chain variable region F94P (antibody, V domains shown)
VH: B1 VH
VL: B1 VL with F94P
As to B7, in test [5], the fold difference in affinity in comparison to original came out at 0.17 fold.

B8: C5A (XPA23) light chain variable region F94I (antibody, V domains shown)
VH: B1 VH
VL: B1 VL with F94I
With B8, the fold difference in affinity in comparison to original in test [5] was 0.88 fold.

B9: C5A (XPA23) light chain variable region F94L (antibody, V domains shown)
VH: B1 VH
VL: B1 VL with F94L
Regarding B9, in test [5], the fold difference in affinity in comparison to original worked out at 0.55 fold.
